Columns and labels:
TGF-β1蛋白 [1] = target: T1, TGF-β1蛋白 (UniProt P01137 279-390); experiment: cell-based or functional assay
VEGF-A165 = target: T2, VEGF-A165 (UniProt P15692-4 27-191); experiment: ELISA, VEGF coated at 100 ng/well, HRP goat anti-human Fab detection
T2 construct: Isoform VEGF-A165; also called VEGF蛋白

TGF-β1蛋白 [2] = target: T1, TGF-β1蛋白; experiment: ELISA, TGF-β1 coated at 100 ng/well, HRP goat anti-human Fab detection

T1 sequence (P01137 279-390 limits assumed): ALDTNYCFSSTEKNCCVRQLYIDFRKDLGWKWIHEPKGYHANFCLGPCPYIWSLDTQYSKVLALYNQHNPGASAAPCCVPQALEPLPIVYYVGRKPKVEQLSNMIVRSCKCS
T2 sequence (P15692 other isoform, or with tags, fused parts or gaps limits assumed): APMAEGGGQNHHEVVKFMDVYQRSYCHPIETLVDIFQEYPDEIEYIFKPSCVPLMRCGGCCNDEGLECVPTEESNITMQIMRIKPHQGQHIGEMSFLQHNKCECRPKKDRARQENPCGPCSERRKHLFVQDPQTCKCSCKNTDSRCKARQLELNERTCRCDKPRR

B1: 抗TGF-β单抗12.7 (antibody, human IgG4 S228P, kappa, V domains shown)
VH: QVQLVQSGAEVKKPGASVKVSCKASGYTFTSEWMNWVRQAPGQGLEWMGQIFPALGSTNYNEMYEGRVTMTTDTSTSTAYMELRSLRSDDTAVYYCARGIGNYALDAMDYWGQGTLVTVSS
VL: DIQMTQSPSSLSASVGDRVTITCRASESVDFYGNSFMHWYQQKPGKAPKLLIYLASNLESGVPSRFSGSGSGTDFTLTISSLQPEDFATYYCQQNIEDPLTFGGGTKVEIKR
notes: also called mAb127
- SMAD3报告基因抑制实验 IC50 (TGF-β1蛋白 [1]): 337 pM
- binding result (VEGF-A165): no binding (tested: 200nM)
- EC50 (TGF-β1蛋白 [2]): 202 pM

Reference: patent publication CN115707716A (DANSHENG MEDICAL TECH SHANGHAI CO LTD, dated 2023)
